Sequences and labels used below:
B1: NP_002788.1 (parent)
chain: DGWIRVSSDNVADLHEKYSGSTP
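Further: lentivirally expressed fusion library, cells FACS-sorted into six equal-sized GFP/DsRed ratio bins, PSI computed from sequencing read fractions per bin weighted by bin number.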

The variants in the data set derive from B1. The experiment in a line: protein stability index of a GFP-peptide fusion (GPS, HEK-293T) (PSI 1-6); higher = more stable. The conditions noted are these: c terminus: native.
For the variant DGWIRVSSDNVADLHEKYSGQTP [S21Q], the protein stability index came to 3.01.
The value for DGWIRVSSDNVADLHEKYSGMTP [S21M] was 1.87; that for DGWIRVSSDNVADLHEKYSGCTP [S21C] was 1.98.
For the variant DGWIRVSSDNVADLHEKYSGGTP [S21G], the protein stability index is 3.59.
For DGWIRVSSDNVADLHEKYSGKTP [S21K], the protein stability index worked out at 3.06.
As to DGWIRVSSDNVADLHEKYSGNTP [S21N], the protein stability index was found to be 1.94.
Take DGWIRVSSDNVADLHEKYSGATP [S21A]: the protein stability index worked out at 2.21.
The value for DGWIRVSSDNVADLHEKYSGETP [S21E] was 4.56; that for DGWIRVSSDNVADLHEKYSGLTP [S21L] was 2.06.
For DGWIRVSSDNVADLHEKYSGHTP [S21H], the protein stability index turned out to be 2.49.
The value for DGWIRVSSDNVADLHEKYSGPTP [S21P] was 3.5; that for DGWIRVSSDNVADLHEKYSGITP [S21I] was 1.95.
The value for DGWIRVSSDNVADLHEKYSGFTP [S21F] was 2.16; that for DGWIRVSSDNVADLHEKYSGDTP [S21D] was 4.54.
The value for DGWIRVSSDNVAWLHEKYSGSTP [D13W] was 2.71.
On to DGWIRVSSDNVAYLHEKYSGSTP [D13Y], for which the protein stability index is 2.54.
The value for DGWIRVSSDNVAVLHEKYSGSTP [D13V] was 2.75; that for DGWIRVSSDNVASLHEKYSGSTP [D13S] was 2.52.
The value for DGWIRVSSDNVAKLHEKYSGSTP [D13K] was 2.71.
For DGWIRVSSDNVAMLHEKYSGSTP [D13M], the protein stability index was determined as 2.53.
Regarding DGWIRVSSDNVAGLHEKYSGSTP [D13G], the protein stability index was 2.42.
Consider DGWIRVSSDNVAHLHEKYSGSTP [D13H], for which the protein stability index was 2.38.
On to DGWIRVSSDNVARLHEKYSGSTP [D13R], for which the protein stability index amounted to 2.04.
With DGWIRVSSDNVAFLHEKYSGSTP [D13F], the protein stability index was 2.62.
As to DGWIRVSSDNVAPLHEKYSGSTP [D13P], the protein stability index is 2.3.
Take DGWIRVSSDNVALLHEKYSGSTP [D13L]: the protein stability index amounted to 2.58.
The value for DGWIRVSSDNVANLHEKYSGSTP [D13N] was 2.4; that for DGWIRVSSDNVAQLHEKYSGSTP [D13Q] was 2.47.
The value for DGWIRVSSDNVAELHEKYSGSTP [D13E] was 2.72.
The value for DGWIRVSSDNVAALHEKYSGSTP [D13A] was 2.66.
In the case of DGWIRVSSDNVACLHEKYSGSTP [D13C], the protein stability index was 2.6.
The value for DGWIRVSSDNVATLHEKYSGSTP [D13T] was 2.47.
Turning to DGWIRVSSDNVAILHEKYSGSTP [D13I], the protein stability index came out at 2.53.
The value for DGWIRVSSDNVADHHEKYSGSTP [L14H] was 2.06.
Regarding DGWIRVSSDNVADGHEKYSGSTP [L14G], the protein stability index is 3.47.
The value for DGWIRVSSDNVADTHEKYSGSTP [L14T] was 2.86.
The value for DGWIRVSSDNVADNHEKYSGSTP [L14N] was 2.98; that for DGWIRVSSDNVADAHEKYSGSTP [L14A] was 2.84.
The value for DGWIRVSSDNVADRHEKYSGSTP [L14R] was 2.41.
Turning to DGWIRVSSDNVADWHEKYSGSTP [L14W], the protein stability index is 2.62.
The value for DGWIRVSSDNVADVHEKYSGSTP [L14V] was 2.36; that for DGWIRVSSDNVADIHEKYSGSTP [L14I] was 2.35; that for DGWIRVSSDNVADFHEKYSGSTP [L14F] was 1.96.
The value for DGWIRVSSDNVADCHEKYSGSTP [L14C] was 2.92; that for DGWIRVSSDNVADSHEKYSGSTP [L14S] was 3.01; that for DGWIRVSSDNVADDHEKYSGSTP [L14D] was 2.89.
Regarding DGWIRVSSDNVADMHEKYSGSTP [L14M], the protein stability index was 2.65.
As for DGWIRVSSDNVADEHEKYSGSTP [L14E], the protein stability index was 2.74.
For DGWIRVSSDNVADKHEKYSGSTP [L14K], the protein stability index amounted to 2.37.
The value for DGWIRVSSDNVADQHEKYSGSTP [L14Q] was 2.89.
The value for DGWIRVSSDNVADYHEKYSGSTP [L14Y] was 2.5; that for DGWIRVSSDNVADPHEKYSGSTP [L14P] was 2.57; that for DGWIRVSSDNVNDLHEKYSGSTP [A12N] was 2.48.
The value for DGWIRVSSDNVYDLHEKYSGSTP [A12Y] was 2.73; that for DGWIRVSSDNVMDLHEKYSGSTP [A12M] was 2.3.
As for DGWIRVSSDNVFDLHEKYSGSTP [A12F], the protein stability index came to 2.32.
The value for DGWIRVSSDNVHDLHEKYSGSTP [A12H] was 2.85; that for DGWIRVSSDNVIDLHEKYSGSTP [A12I] was 2.59; that for DGWIRVSSDNVEDLHEKYSGSTP [A12E] was 2.52.
With DGWIRVSSDNVCDLHEKYSGSTP [A12C], the protein stability index was found to be 2.57.
The value for DGWIRVSSDNVSDLHEKYSGSTP [A12S] was 2.24.
The value for DGWIRVSSDNVGDLHEKYSGSTP [A12G] was 2.68; that for DGWIRVSSDNVVDLHEKYSGSTP [A12V] was 2.44.
Take DGWIRVSSDNVPDLHEKYSGSTP [A12P]: the protein stability index worked out at 2.45.
Regarding DGWIRVSSDNVLDLHEKYSGSTP [A12L], the protein stability index is 2.88.
As to DGWIRVSSDNVTDLHEKYSGSTP [A12T], the protein stability index was 2.43.
On to DGWIRVSSDNVRDLHEKYSGSTP [A12R], for which the protein stability index stood at 2.46.
Turning to DGWIRVSSDNVKDLHEKYSGSTP [A12K], the protein stability index was 2.33.
For DGWIRVSSDNVWDLHEKYSGSTP [A12W], the protein stability index was 2.46.
The value for DGWIRVSSDNVQDLHEKYSGSTP [A12Q] was 2.25; that for DGWIRVSSDNVADLHEKYRGSTP [S19R] was 2.34; that for DGWIRVSSDNVADLHEKYGGSTP [S19G] was 3.02.
The value for DGWIRVSSDNVADLHEKYMGSTP [S19M] was 2.28; that for DGWIRVSSDNVADLHEKYTGSTP [S19T] was 2.47.
The value for DGWIRVSSDNVADLHEKYYGSTP [S19Y] was 2.47; that for DGWIRVSSDNVADLHEKYQGSTP [S19Q] was 2.41; that for DGWIRVSSDNVADLHEKYNGSTP [S19N] was 3.07.
Turning to DGWIRVSSDNVADLHEKYVGSTP [S19V], the protein stability index is 2.94.
With DGWIRVSSDNVADLHEKYPGSTP [S19P], the protein stability index came to 2.34.
The value for DGWIRVSSDNVADLHEKYWGSTP [S19W] was 2.68.
The value for DGWIRVSSDNVADLHEKYLGSTP [S19L] was 2; that for DGWIRVSSDNVADLHEKYAGSTP [S19A] was 2.26; that for DGWIRVSSDNVADLHEKYKGSTP [S19K] was 1.95.
For DGWIRVSSDNVADLHEKYDGSTP [S19D], the protein stability index was found to be 3.5.
The value for DGWIRVSSDNVADLHEKYHGSTP [S19H] was 2.56; that for DGWIRVSSDNVADLHEKYFGSTP [S19F] was 2.82; that for DGWIRVSSDNVADLHEKYCGSTP [S19C] was 2.9.
Consider DGWIRVSSDNVADLHEKYIGSTP [S19I], for which the protein stability index amounted to 2.49.
On to DGWIRVSSDNVADLHEKYEGSTP [S19E], for which the protein stability index is 2.87.
DGWIRVSSDNVADLHEYYSGSTP [K17Y]: the protein stability index amounted to 3.34.
The value for DGWIRVSSDNVADLHEEYSGSTP [K17E] was 3.47; that for DGWIRVSSDNVADLHESYSGSTP [K17S] was 3.41.
The value for DGWIRVSSDNVADLHEHYSGSTP [K17H] was 3.24.
Turning to DGWIRVSSDNVADLHEGYSGSTP [K17G], the protein stability index came to 3.75.
The value for DGWIRVSSDNVADLHENYSGSTP [K17N] was 3.33; that for DGWIRVSSDNVADLHEPYSGSTP [K17P] was 3.69.
Consider DGWIRVSSDNVADLHELYSGSTP [K17L], for which the protein stability index was 3.06.

These data come from the supplement of paper PMC10567573.
